The Human Domainome abundance scans (Beltran et al. 2025)

B1: SWI/SNF complex subunit SMARCC2, residues 599 to 641; numbered along this chain, Q8TAQ2 (parent)
chain: REWTEQETLLLLEALEMYKDDWNKVSEHVGSRTQDECILHFLR
B2: SWI/SNF complex subunit SMARCC1, residues 620 to 663; numbered along this chain, Q92922 (parent)
chain: GREWTEQETLLLLEALEMYKDDWNKVSEHVGSRTQDECILHFLR

Variants of: B1
Experiment: abundance fitness (aPCA) (normalised: wild type 0, dead -1); higher = more abundant; growth selection in yeast, the domain comes from the species named
Settings: Homo sapiens

Abundance fitness of substitutions, site by site:
T33: F -0.684 | I -0.721 | Y -0.305 | R 0.123
T8: M 0.124 | N 0.287 | H 0.291 | F -0.224
D35: P 0.066 | G 0.046 | I -0.388 | A 0.121
L10: M 0.03 | Y -0.024 | E 0.346 | Q -0.018 | H -0.115 | R -0.208
H28: K -0.242 | L -0.433 | N -0.853
E16: P -0.018 | S -0.301 | Q -0.186
W3: Q -0.247 | P -0.045
A14: H -1.05
H40: S -0.383 | Y 0.272 | R 0.096 | W -0.139 | V -0.376
G30: T -0.031 | K -0.011
L9: E -0.016 | Q 0.271 | K 0.308
R32: E -0.472 | V -0.523 | H -0.374 | Q -0.313
N23: A 0.204 | Q -0.081 | H -0.009 | F 0.046 | E 0.091 | R 0.069
V29: L -0.07 | D -0.714 | G -0.835 | E -0.711 | Q -0.548
D20: R 0.289 | G 0.005
T4: R -0.305 | G -0.794 | E -0.042 | F -0.32
V25: R -0.331 | D -0.478 | W -0.522 | I 0.235 | C 0.316
E2: G 0.184 | T 0.414 | Q 0.403 | D 0.56
S26: M 0.199
R1: E 0.251 | P -0.025
E36: W -0.855 | A -0.446
K24: Q 0.046 | C -0.148 | M 0.259
M17: D -0.035 | N 0.027
W22: Q -0.887 | S -0.91 | I -0.535 | M -0.412
D21: K -0.065 | W -0.493 | R -0.192 | E -0.158
E5: T 0.004 | S -0.506 | F -0.347 | C -0.104
E7: R -0.887 | T -0.745
Q6: R -0.003 | C -0.394 | G 0.002 | D -0.133 | S -0.015 | W -0.025
L42: A 0.334 | T 0.519
I38: H 0.415 | G 0.401
Y18: A -0.375 | H 0.106 | W -0.093
L12: S -0.169
Q34: H 0.058 | N 0.051 | I -0.074
F41: Y 0.185
L39: A 0.154
L11: S -0.788
E13: S -0.304 | Q -0.34
E27: G -0.038

Variants of: B2
Experiment: as above
Settings: Homo sapiens

Abundance fitness: each site, then its substitutions
G1: A 0.081 | D 0.277 | F -0.122 | H -0.147 | I 0.128 | R -0.383 | W -0.293 | Y 0.191
R2: A 0.288 | C 0.084 | D 0.237 | E 0.145 | F 0.253 | G -0.051 | I 0.415 | K 0.244 | L -0.719 | N 0.288 | Q -0.298 | S -0.147 | T 0.174 | V 0.086 | W -0.023 | Y -0.04
E3: A -0.04 | C -0.353 | D 0.311 | F 0.178 | G 0.158 | L -0.03 | M -0.063 | P 0.077 | Q 0.12 | S 0.329 | V 0.312 | W -0.674 | Y 0.229
W4: A -0.254 | C -0.526 | D -0.168 | E 0.023 | G -0.153 | H -0.4 | I 0.253 | L -0.285 | M -0.141 | N -0.265 | R -0.084 | S -0.08 | T -0.134 | V -0.147 | Y -0.23
T5: A -0.363 | C -0.14 | D -0.069 | E 0.081 | G -0.755 | H -0.513 | I -0.201 | K 0.03 | L -0.174 | M 0.11 | N -0.086 | P -0.572 | Q -0.127 | R -0.241 | V -0.461 | W -0.693 | Y -0.116
E6: A 0.071 | C -0.069 | D -0.164 | F -0.265 | G -0.194 | I -0.12 | K 0.181 | L -0.234 | M 0.099 | N -0.17 | P -0.264 | Q 0.212 | R -0.137 | S -0.441 | T -0.12 | V -0.227 | W -0.155 | Y -0.178
Q7: G -0.052 | I 0.341 | L -0.578 | P -0.381 | R 0.206 | T 0.075 | V -0.227
E8: A -0.808 | C -0.616 | D -0.76 | F -0.702 | G -0.861 | H -0.54 | I -0.746 | L -0.936 | M -0.482 | N -0.584 | P -0.593 | Q -0.098 | S -1.01 | T -0.651 | V -1 | W -1.06 | Y -1.21
T9: A -0.085 | C -0.015 | D -0.075 | E -0.037 | F 0.004 | G -0.098 | H -0.023 | I 0.264 | K 0.158 | L -0.044 | M 0.037 | N -0.04 | P -0.449 | Q 0.319 | R 0.252 | S -0.01 | W -0.595 | Y -0.022
L10: A -0.019 | C 0.243 | E 0.082 | F -0.008 | H 0.084 | I -0.016 | K 0.176 | M -0.21 | N -0.247 | P -0.287 | Q 0.251 | R 0.158 | S 0.147 | T 0.237 | V -0.04 | W -0.137 | Y -0.407
L11: A -0.134 | C -0.521 | D -0.19 | E -0.281 | F -0.096 | G -0.154 | I -0.29 | K 0.021 | M 0.138 | N -0.304 | P -0.58 | R -0.139 | S 0.024 | T 0.016 | V -0.064 | W -0.258
L12: A -0.213 | C -0.401 | D -0.259 | E -0.129 | F 0.016 | G 0.009 | H -0.413 | K -0.428 | M -0.32 | N -0.938 | P -0.709 | Q -0.372 | R -0.718 | S -0.651 | T -0.602 | V -0.341 | Y -0.103
L13: A 0.285 | D 0.01 | H -0.166 | I 0.044 | Q -0.197 | R 0.127 | S -0.259 | T 0.531 | V -0.126 | W -0.314 | Y -0.229
E14: A 0.007 | C -0.684 | D -0.177 | G -0.27 | H -0.311 | I -0.97 | K -0.006 | L -0.549 | M -0.267 | N -0.164 | P -1.15 | Q -0.045 | R -0.28 | S -0.27 | T -0.18 | V -0.552 | Y -0.428
A15: D -0.562 | E -0.716 | F -0.616 | G 0.03 | H -0.707 | K -0.925 | L -0.926 | P -1.19 | Q -0.72 | R -0.82 | S -0.043 | V -0.886 | Y -0.746
